Experimental data reported in PMC11847488, “Hydroxycinnamoyl-coenzyme A: tetrahydroxyhexanedioate hydroxycinnamoyl transferase (HHHT) from Phaseolus vulgaris L.: phylogeny, expression pattern, kinetic parameters, and active site analysis” (PeerJ, 2025).

Assays:
Assay in all cases: purified protein
Type in all cases: biochemical, Phaseolus vulgaris
purified protein [1] = substrate: CC(C)(COP(=O)(O)OP(=O)(O)OC[C@H]1O[C@@H](n2cnc3c(N)ncnc32)[C@H](O)[C@@H]1OP(=O)(O)O)[C@@H](O)C(=O)NCCC(=O)NCCSC(=O)/C=C/c1ccc(O)c(O)c1; conditions: co-substrate saccharic acid 20 mM, 100 mM sodium phosphate, pH 7.5, 1 mM EDTA, 25 °C
purified protein [2] = substrate: CC(C)(COP(=O)(O)OP(=O)(O)OC[C@H]1O[C@@H](n2cnc3c(N)ncnc32)[C@H](O)[C@@H]1OP(=O)(O)O)[C@@H](O)C(=O)NCCC(=O)NCCSC(=O)/C=C/c1ccc(O)cc1; conditions: co-substrate saccharic acid 20 mM, 100 mM sodium phosphate, pH 7.5, 1 mM EDTA, 25 °C
purified protein [3] = substrate: COc1cc(/C=C/C(=O)SCCNC(=O)CCNC(=O)[C@H](O)C(C)(C)COP(=O)(O)OP(=O)(O)OC[C@H]2O[C@@H](n3cnc4c(N)ncnc43)[C@H](O)[C@@H]2OP(=O)(O)O)ccc1O; conditions: co-substrate saccharic acid 20 mM, 100 mM sodium phosphate, pH 7.5, 1 mM EDTA, 25 °C
purified protein [4] = substrate: O=C(O)[C@@H](O)[C@@H](O)[C@H](O)[C@@H](O)C(=O)O; conditions: co-substrate p-coumaroyl-CoA 100 μM, 100 mM sodium phosphate, pH 7.5, 1 mM EDTA, 25 °C
purified protein [5] = substrate: O=C(O)[C@@H](O)[C@H](O)[C@H](O)[C@@H](O)C(=O)O; conditions: co-substrate p-coumaroyl-CoA 100 μM, 100 mM sodium phosphate, pH 7.5, 1 mM EDTA, 25 °C

B1: HHHT (PvHHHT) (Phaseolus vulgaris) (protein)
chain: MVTIVASYRVLPCEETPKGHLWLADSDQVVRSGHTPTFYVYQAKHNHDTNERLRKSLGEILVHYYPVAGRLSLAEDARIQLDCNAKGVTFIEAETTKSMADYGDFSPGVVAELVPKIDYTQPVEEIPLMLVQSTRLPGGNGFVIGLAVCHVLSDGLGSIQFINSWAKLGRGETLEPHELPYLDRTVLKHQHSSTSPSPCFDHPELKPLPLKLGSSDINAEQKKKTRAVLLKLTRQQVEKLKKEANEQPLQEGVRAYSRFEALAGHIWRSASKARELEEKQPTVVRFNADIRSRVIPPLPKNYYGNALAATVTPKCYVGEIVSKPLSYAAQKVREAIEKLTNEYIRSQLKNVLGEEQLDCIRRLFMGEGERRNVPFAGNPNLHITSWMSMPLYEADFGWGKPVNFGLAYVFAQDRAVIILSPHGDGSIVISMTFQEEHLELFKKFFYETI
notes: full length, N-terminal 6xHis tag (pET28a(+)), codon-optimized, E. coli Rosetta 2 (DE3) pLysS, IMAC purified; tag cleavage not mentioned
With B1 as the protein, how does the Km (purified protein [1]) read?
Its Km is 5.8 ± 0.4 µM.

What about the kcat (purified protein [1]) of the same protein?
Its kcat is 3.4 ± 0.1 s⁻¹.

And the kcat/Km (purified protein [1])?
Its kcat/Km is 590000 ± 40000 M⁻¹ s⁻¹.

What about the Km (purified protein [2]) of the same protein?
Its Km is 7.2 ± 0.5 µM.

What about the kcat (purified protein [2]) of the same protein?
The kcat was 5.9 ± 0.1 s⁻¹.

What about the kcat/Km (purified protein [2]) of the same protein?
Its kcat/Km is 820000 ± 60000 M⁻¹ s⁻¹.

And the Km (purified protein [3])?
The Km was 9.6 ± 0.4 µM.

What about the kcat (purified protein [3]) of the same protein?
Its kcat is 6 ± 0.1 s⁻¹.

And the kcat/Km (purified protein [3])?
Its kcat/Km is 630000 ± 20000 M⁻¹ s⁻¹.

What about the Km (purified protein [4]) of the same protein?
The Km was 5,200 ± 500 μM.

What about the kcat (purified protein [4]) of the same protein?
The kcat was 6.4 ± 0.2 s⁻¹.

What about the kcat/Km (purified protein [4]) of the same protein?
The kcat/Km was 1200 ± 100 M⁻¹ s⁻¹.

What about the Km (purified protein [5]) of the same protein?
Its Km is 4,400 ± 700 μM.

What about the kcat (purified protein [5]) of the same protein?
The kcat was 1.5 ± 0.1 s⁻¹.

And the kcat/Km (purified protein [5])?
The kcat/Km was 340 ± 50 M⁻¹ s⁻¹.
